Target: T1, murine monoclonal antibody P3
T1 construct: Murine IgM with kappa light chain from hybridoma ECACC 94113026, coated on the ELISA plate; FR4 segments are printed short; also called Mab P3; MAb P3
Experiment: ELISA, plate coated with Mab P3, purified chimeric 1E10 detected with goat anti-human antibody-alkaline phosphatase, absorbance at 405 nm
Method: For recombinant MAb 1 E10, Microtiter plates were coated with Mab P3. After washing with PBST (saline phosphate buffered solution containing 0.05% Tween 20), unspecific binding was blockade with bovine sera albumin (BSA) 1% in PBST, incubated for one hour at 37° C.
The wells were washed and incubated for 1 hour at 37° C. with purified recombinant Mab 1E10. The wells were washed with PBST and a goat anti-human antibody conjugated with alkaline phosphatase was added and incubated at 37° C. for one hour. Finally, the wells were washed with PBST and the substrate buffer containing p-nitrophenylphosphate was added.

T1 sequence (VH, as listed by the source, chain 1 of 2): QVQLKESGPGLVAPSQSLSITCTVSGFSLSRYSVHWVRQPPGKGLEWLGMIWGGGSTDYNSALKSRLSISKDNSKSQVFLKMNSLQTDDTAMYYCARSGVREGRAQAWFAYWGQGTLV
T1 sequence (V domain, as listed by the source, chain 2 of 2): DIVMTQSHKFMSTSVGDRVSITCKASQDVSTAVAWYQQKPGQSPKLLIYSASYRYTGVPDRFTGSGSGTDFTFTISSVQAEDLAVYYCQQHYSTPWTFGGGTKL

binding result: binds
B1: chimeric Mab 1E10 (antibody, V domains shown)
VH: QVQLQQSGAELVKPGASVKLSCKASGYTFTSYDINWVRQRPEQGLEWIGWIFPGDGSTKYNEKFKGKATLTTDKSSSTAYMQLSRLTSEDSAVYFCAREDYYDNSYYFDYWGQGTTLTV
VL: DIQMTQTTSSLSASLGDRVTISCRASQDISNYLNWYQQKPDGTVKLLIYYTSRLHSGVPSRFSGSGSGTDYSLTISNLEQEDIATYFCQQGNTLPWTFGGGTKLESK
notes: FR4 segments are printed short, so the variable domains may lack their last residues; also called Mab 1E10 chimeric; recombinant MAb 1E10
